Our source for the IC50 of inhibition of BCMA-CAR-Jurkat cell activation (CD69) by NCI-H929 cells, IC50 of inhibition of CAR-Jurkat activation (NFAT-GFP) by K562 cells and NFAT-GFP downregulated values is patent US20260078162A1.

For test [1], the target named is BCMA-CAR with a CD3zeta signaling motif on CAR-Jurkat cells. Put plainly: cell-based or functional assay.
The target of test [2] is anti-CD19 chimeric antigen receptor (CAR) on Jurkat NFAT-GFP cells. Briefly: cell-based or functional assay.

For “BCMAwt-Fc fusion protein (pDP39-BCMA ECD-FC)”, in test [1], the IC50 of inhibition of BCMA-CAR-Jurkat cell activation (CD69) by NCI-H929 cells came to 36 nM.

In test [2], “CD19 wt-Fc (pDP10 CD19-WT FC) (Fc fusion)” had an IC50 of inhibition of CAR-Jurkat activation (NFAT-GFP) by K562 cells of 200 nM and an NFAT-GFP downregulated at the maximum concentration tested of 30%.
